± gives the standard error. For some of these results: Fewer inactive variants are shown than the library holds.
B1: glmS ribozyme (parent)
chain: AUAAAAGCGCCAGAACUACAGAAAUGUAGUUGACGAGGAGGAGGUUUAUCGAAUUUUCGGCGGAUGCCUCCAAA

Columns and labels:
Conditions in all cases: with glucosamine-6-phosphate
glucosamine-6-phosphate [1] = variants of: B1; assay: kcat; higher = faster cleavage; RNA array
Outline: (§1)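 In situ transcription by E. coli RNA polymerase produced barcoded ribozyme variants on sequenced MiSeq chips, and a hybridised Cy3 probe tracked them at 37 °C. Glucosamine-6-phosphate was flowed in at 40 μM to 10 mM in HEPES/KCl/Mg(OAc)2 buffer. kcat and KM were taken from weighted Michaelis–Menten fits of kobs values from exponential decay fits.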

glucosamine-6-phosphate [2] = variants of: B1; assay: KM; higher = weaker cofactor use; RNA array
Outline: as §1

glucosamine-6-phosphate [3] = variants of: B1; assay: self-cleavage kobs at 40 uM GlcN6P; higher = faster cleavage; RNA array
Outline: as §1

glucosamine-6-phosphate [4] = variants of: B1; assay: self-cleavage kobs at 160 uM GlcN6P; higher = faster cleavage; RNA array
Outline: as §1

glucosamine-6-phosphate [5] = variants of: B1; assay: self-cleavage kobs at 640 uM GlcN6P; higher = faster cleavage; RNA array
Outline: as §1

glucosamine-6-phosphate [6] = variants of: B1; assay: self-cleavage kobs at 2500 uM GlcN6P; higher = faster cleavage; RNA array
Outline: as §1

glucosamine-6-phosphate [7] = variants of: B1; assay: self-cleavage kobs at 10000 uM GlcN6P; higher = faster cleavage; RNA array
Outline: as §1

| Variant | kcat (glucosamine-6-phosphate [1]) | KM (glucosamine-6-phosphate [2]) | self-cleavage kobs at 40 uM GlcN6P (glucosamine-6-phosphate [3]) | self-cleavage kobs at 160 uM GlcN6P (glucosamine-6-phosphate [4]) | self-cleavage kobs at 640 uM GlcN6P (glucosamine-6-phosphate [5]) | self-cleavage kobs at 2500 uM GlcN6P (glucosamine-6-phosphate [6]) | self-cleavage kobs at 10000 uM GlcN6P (glucosamine-6-phosphate [7]) |
| --- | --- | --- | --- | --- | --- | --- | --- |
| AUAAAAGCGCCAGAACUACAGAAAUGUAGUGGACUAGGAGGAGGUUUAUCGAAUUUUCGGCGGAUGGCUCCAAA [U31G G35U C67G] | < 1e-05 s⁻¹ | – | – | – | – | – | – |
| AUAAAAGCGCCAGAACUACAGAAAUGUAGUGGACGAGGAGGAGGUUUAUCGAAUUUUCGGCGGAUGCCUCCAAA [U31G] | 0.0277 ± 0.0077 s⁻¹ | 3.08 ± 1 mM | 0.000403 ± 7.4e-06 s⁻¹ | 0.00114 ± 4.7e-05 s⁻¹ | 0.00394 ± 0.00013 s⁻¹ | 0.0126 ± 0.00057 s⁻¹ | 0.0227 ± 0.00081 s⁻¹ |
| AUAAAAGCGCCAGAACUACAGAAAUGUAGUCGACGAGGAGGAGGUUAAUCGAAUUUUCGGCGGAUGCCUCCAAA [U31C U47A] | 0.00379 ± 0.00061 s⁻¹ | 1.8 ± 0.46 mM | 8.24e-05 ± 1.4e-05 s⁻¹ | 0.000354 ± 7.7e-05 s⁻¹ | 0.00107 ± 0.00022 s⁻¹ | 0.00178 ± 0.00031 s⁻¹ | 0.00367 ± 0.00049 s⁻¹ |
| AUAAAAGCGCCAGAACUACAGAAAUGUAGUGGACGAGGUGGAGGUUUAUCGAAUUUUCGGCGGAUGCCUCCAAA [U31G A39U] | 0.0136 ± 0.0028 s⁻¹ | 3.52 ± 0.93 mM | 0.000179 ± 1.6e-05 s⁻¹ | 0.000492 ± 7.3e-05 s⁻¹ | 0.00183 ± 0.00041 s⁻¹ | 0.00485 ± 0.00084 s⁻¹ | 0.0106 ± 0.0011 s⁻¹ |
| AUAAAAGCGCCAGAACUACAGAAAUGUAGUCGACGAGGAGGAGGUUUAUCGAAUUUUCGGCGGAUUCCUCCAAA [U31C G66U] | 0.000326 ± 6.8e-05 s⁻¹ | 4.61 ± 1.7 mM | – | – | – | 0.000124 ± 1.6e-05 s⁻¹ | 0.000214 ± 3.5e-05 s⁻¹ |
| AUAAAAGCGCCAGAACUACAGAAAUGUAGUGGACGAGGAGAAGGUUUAUCGAAUUUUCGGCGGAUGCCUCCAAA [U31G G41A] | 0.000638 ± 6.8e-05 s⁻¹ | 1.22 ± 0.22 mM | – | 7.06e-05 ± 1.2e-05 s⁻¹ | 0.000224 ± 2.5e-05 s⁻¹ | 0.000482 ± 6.9e-05 s⁻¹ | 0.000506 ± 9.5e-05 s⁻¹ |
| AUAAAAGCGCCAGAACUACAGAAAUGUAGUGGACGAGGAGGAGGUUUAUCGAAUUUUCGGCGGAUGCCUCUAAA [U31G C71U] | 0.0144 ± 0.0067 s⁻¹ | – | 0.000277 ± 3.1e-05 s⁻¹ | 0.000479 ± 8.2e-05 s⁻¹ | 0.00235 ± 0.00045 s⁻¹ | 0.00836 ± 0.0019 s⁻¹ | 0.0107 ± 0.0016 s⁻¹ |
| AUAAAAGCGCCAGAACUACAGAAAUGUAGUCGACGAGGAGGAGGUUUAUCGAAUUUUCGGCGUAUGCCUCCAAA [U31C G63U] | < 1e-05 s⁻¹ | – | – | – | – | < 1e-05 s⁻¹ | – |
| AUAAAAGCGCCAGAACUACAGAAAUGUAGUCGACGAGGAGGAGGUUAAUCGAAUUCUCGGCGGAUGCCUCCAAA [U31C U47A U56C] | 0.00113 ± 0.00024 s⁻¹ | 5.36 ± 1.7 mM | – | – | 0.000111 ± 2.5e-05 s⁻¹ | 0.000487 ± 0.00011 s⁻¹ | 0.000707 ± 0.00012 s⁻¹ |
| AUAAAAGCGCCAGAACUACAGAAAUGUAGUCGACGAGGAGGAGGUUUAUCGAAUUUGCGGCGGAUGACUCCAAA [U31C U57G C67A] | < 1e-05 s⁻¹ | – | – | < 1e-05 s⁻¹ | – | – | – |
| AUAAAAGCGCCAGAACUACAGAAAUGUAGUCGACGAGUAGGAGGUUUAUCGAAUUUUCGGCGGAUGCCUCCAAA [U31C G38U] | < 1e-05 s⁻¹ | – | < 1e-05 s⁻¹ | – | – | – | < 1e-05 s⁻¹ |
| AUAAAAGCGCCAGAACUACAGAAAUGUAGUCGACGAGGAGGAGGAUUAUCGAAUUUUCGGCGGAUGCCUCCAAA [U31C U45A] | 0.0175 ± 0.0045 s⁻¹ | 3.89 ± 1.2 mM | 0.000212 ± 6e-05 s⁻¹ | 0.000613 ± 0.00012 s⁻¹ | 0.00258 ± 0.00062 s⁻¹ | 0.00783 ± 0.0016 s⁻¹ | 0.0108 ± 0.004 s⁻¹ |
| AUAAAAGCGCCAGAACUACAGAAAUGUAGUCGACGAGGAGGAGGUUUAUCGAAUUUUCUGCGGAUGCCUCCAAA [U31C G59U] | < 1e-05 s⁻¹ | – | < 1e-05 s⁻¹ | – | < 1e-05 s⁻¹ | – | – |
| AUAAAAGCGCCAGAACUACAGAAAUGUAGUGGACGAGGAGGAGGUUUAUCGAUUUUUCGGCGGAUGCCUCCAAA [U31G A53U] | 0.019 ± 0.0084 s⁻¹ | – | 0.000188 ± 3e-05 s⁻¹ | – | 0.00281 ± 0.00087 s⁻¹ | 0.00587 ± 0.002 s⁻¹ | 0.0128 ± 0.0024 s⁻¹ |
| AUAAAAGCGCCAGAACUACAGAAAUGUAGUGGUCGAGGAGGAGGUUUAUCGAAUUUUCGGCGGAUGCCUUCAAA [U31G A33U C70U] | 9.54e-05 ± 1.9e-05 s⁻¹ | – | – | – | – | – | 7.8e-05 ± 2e-05 s⁻¹ |
| AUAAAAGCGCCAGAACUACAGAAAUGUAGUCGACGAGGAGGAGGUUUAUCGAAUUUUCGGCGGACGCCUCCAAA [U31C U65C] | 5e-05 ± 2.5e-06 s⁻¹ | 0.238 ± 0.12 mM | – | – | 3.88e-05 ± 1.4e-05 s⁻¹ | 4.75e-05 ± 9.5e-06 s⁻¹ | 4.78e-05 ± 6.9e-06 s⁻¹ |
| AUAAAAGCGCCAGAACUACAGAAAUGUAGUCGACGAUGAGGAGGUUUAUCGAAUUUUCGGCGGAUGCCUCCAAA [U31C G37U] | < 1e-05 s⁻¹ | – | < 1e-05 s⁻¹ | – | < 1e-05 s⁻¹ | – | – |
| AUAAAAGCGCCAGAACUACAGAAAUGUAGUGGACGAGGAGGAGGUUUAUCGAAUUUUCGGCGGCUGCCUCCAAA [U31G A64C] | 2.01e-05 ± 3.9e-06 s⁻¹ | – | – | – | – | – | – |
